Source: patent US20240376204A1 (JIANGSU HENGRUI PHARMACEUTICALS, published 2024)

T1: human PVRIG expressed on cells (human, UniProt Q6DKI7 41-326)
T1 sequence (looked up): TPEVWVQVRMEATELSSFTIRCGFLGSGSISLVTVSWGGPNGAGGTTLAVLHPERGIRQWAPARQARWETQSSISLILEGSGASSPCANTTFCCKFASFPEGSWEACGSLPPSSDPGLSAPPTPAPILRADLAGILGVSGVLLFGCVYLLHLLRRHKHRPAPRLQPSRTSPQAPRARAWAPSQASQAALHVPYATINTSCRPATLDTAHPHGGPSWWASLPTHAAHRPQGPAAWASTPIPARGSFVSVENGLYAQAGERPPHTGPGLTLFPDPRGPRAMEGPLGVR

T2: human TIGIT recombinant protein (human, UniProt Q495A1 22-141)
T2 construct: also called human TIGIT antigen (AcroBiosystem, TIT-H52H3); TIGIT protein
T2 sequence (looked up): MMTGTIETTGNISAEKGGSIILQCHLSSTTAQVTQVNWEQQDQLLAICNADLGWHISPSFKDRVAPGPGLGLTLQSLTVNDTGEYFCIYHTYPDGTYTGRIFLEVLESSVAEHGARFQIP

T3: his-tagged human PVRIG (h-PVRIG-his) recombinant protein (human, UniProt Q6DKI7 41-171, limits assumed)
T3 construct: Acrobiosystems; also called Human PVRIG-his; human PVRIG recombinant protein; not shown: his tag
T3 sequence (looked up): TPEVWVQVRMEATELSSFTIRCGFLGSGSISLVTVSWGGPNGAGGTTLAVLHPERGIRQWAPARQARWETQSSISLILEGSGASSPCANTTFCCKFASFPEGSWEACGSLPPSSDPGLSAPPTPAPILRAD


Experiments:
[1] = target: T1, human PVRIG expressed on cells; assay: cell-based or functional assay
[2] = target: T2, human TIGIT recombinant protein; assay: ELISA, plate coated with TIGIT protein
Method: (§1) ELISA assays were performed. TIGIT or PVRIG protein (his tag, Acrobiosystems, PVG-H52H4) was dissolved in PBS to 1 μg/mL, and the solution was added to a 96-well plate at 100 μL/well. The plate was coated with the antigen overnight at 4° C. The plate was washed with PBST solution three times. PBST/1% BSA solution was added, and the plate was incubated at 37° C. for 1 h for blocking. After three washes with PBST solution, different concentrations of the trispecific antibodies (diluted with PBST/1% BSA solution) were added, and the plate was incubated at 37° C. for 1.5 h. The plate was washed with PBST solution three times. […] After three washes with PBST solution, TMB solution was added at 100 μL/well. After 5 min of reaction at room temperature, 50 μL of stop solution was added. OD450 values were measured using a microplate reader, and EC₅₀ was calculated.

[3] = target: T4, human PD-1 expressed on cells (human, UniProt Q15116 25-288); assay: cell-based or functional assay
[4] = target: T3, his-tagged human PVRIG (h-PVRIG-his) …; assay: ELISA, plate coated with PVRIG protein (his tag)
Method: as §1

[5] = target: T4, human PD-1 expressed on cells; assay: cell-based or functional assay; remark: listed apart in the source
[6] = target: T1, human PVRIG expressed on cells; assay: FACS, HEK293F cells expressing human PVRIG
Method: A stably transfected HEK293F cell strain expressing the human PVRIG gene, a stably transfected CHO-K1 cell strain expressing the human TIGIT gene, and Jurkat cells expressing human PD-1 were used. The cell strain was inoculated into a 96-well plate at 2×10⁵ cells/well. The plate was centrifuged at 300 g for 5 min, and the supernatant was removed. 100 μL of test antibody was added, and the plate was incubated at 4° C. for 1 h. The plate was centrifuged, and the supernatant was removed. The plate was washed 3 times with 200 μL of wash buffer (PBS+2% FBS), and 100 μL of an Alexa Fluor 488-labeled anti-human IgG secondary antibody (Invitrogen, A-11013) diluted at 1:500 was added. The plate was incubated at 4° C. for 1 h. The plate was centrifuged, and the supernatant was removed. The plate was washed 3 times with 200 μL of wash buffer (PBS+2% FBS). The cells were resuspended in 100 μL of PBS and tested on a flow cytometer (BD FACS Calibur or BD FACS Canto_ II).

[7] = target: T4, human PD-1 expressed on cells; assay: cell-based or functional assay; remark: listed apart in the source

T4 sequence (Q15116 25-288 limits assumed): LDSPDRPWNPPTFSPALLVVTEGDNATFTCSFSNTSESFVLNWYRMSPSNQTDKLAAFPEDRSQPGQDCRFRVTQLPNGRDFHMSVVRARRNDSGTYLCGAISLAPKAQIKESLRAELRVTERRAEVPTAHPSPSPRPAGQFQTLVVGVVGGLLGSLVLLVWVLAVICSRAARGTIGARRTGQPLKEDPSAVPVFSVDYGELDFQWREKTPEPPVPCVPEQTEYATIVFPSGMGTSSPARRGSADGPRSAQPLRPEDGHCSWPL

Binder | EC50 [2] | DC:T MLR result, 0.1 nM antibody (unit not given) [3] | DC:T MLR result, 1 nM antibody (unit not given) [3] | DC:T MLR result, 10 nM antibody (unit not given) [3] | DC:T MLR result, 100 nM antibody (unit not given) [3] | EC50 [4] | IC50, PD-1/PD-L1 NFAT reporter gene system [5] | EC50 [6] | EMAX [6] | other results
30H2 (Fc fusion, not shown: a dimerising Fc or GST) EVQLVESGGGLVQPGGSLRLSCAASGFTFSGDCMGWFRQAPGKGLDEGVATIDNAGRIKYADSVKGRFTISRDNAKNSLYLQMNSLRAEDTAVYYCAAGWTFGGQCSPADWGQGTQVTVSS |  |  |  |  |  |  |  |  |  | PVRIG reporter gene cell activity EC50 [1]: 0.176 nM
30H3 (Fc fusion, not shown: a dimerising Fc or GST) EVQLVESGGGLVQPGGSLRLSCAASGYSYSGDCMGWFRQAPGKGLDEGVATIDNAGRIKYADSVKGRFTISRDNAKNSLYLQMNSLRAEDTAVYYCAAGWTFGGQCSPADWGQGTQVTVSS |  |  |  |  |  |  |  |  |  | PVRIG reporter gene cell activity EC50 [1]: 0.078 nM
A17h1-1708-30H2-D (trispecific antibody, human IgG4 S228P, kappa) heavy: not shown light: DIQMTQSPSSLSASVGDRVTITCRASENIYSYLAWYQQKPGKSPKLLIYNARTLAEGVPSRFSGSGSGTDFTLTISSLQPEDFATYYCQYHSGSPLPFGGGTKVEIKRTVAAPSVFIFPPSDEQLKSGTASVVCLLNNFYPREAKVQWKVDNALQSGNSQESVTEQDSKDSTYSLSSTLTLSKADYEKHKVYACEVTHQGLSSPVTKSFNRGECGGGGSGGGGSEVQLQESGGGLVQPGGSLRLSCTASGLTFSDYSMSWYRQAPGKGRELVAIISGSGVIAHYVDSVKGRFTISRDNSKNTVYLQMRSLTPEDRAVYYCRAVSDWDDYWGQGTQVTVSS | 0.113 nM | 115 | 116 | 122 | 136 | 0.0885 nM | 0.825 nM |  |  | 
151H7 (Fc fusion, not shown: a dimerising Fc or GST) HVQLVESGGGLVQPGGSLRLSCVASASGFTYRPYCMAWFRQAPGKEREAVAGIDIFGGTTYADSVKGRFTASRDNAGFSLYLQMNSLRAEDTAVYYCAAGDSPDGRCPPLGQGLNYWGQGTMVTVSS |  |  |  |  |  |  |  |  |  | PVRIG reporter gene cell activity EC50 [1]: 0.038 nM
A17h1-1708-30H2-A (trispecific antibody, human IgG4 S228P, kappa) heavy: not shown light: DIQMTQSPSSLSASVGDRVTITCRASENIYSYLAWYQQKPGKSPKLLIYNARTLAEGVPSRFSGSGSGTDFTLTISSLQPEDFATYYCQYHSGSPLPFGGGTKVEIKRTVAAPSVFIFPPSDEQLKSGTASVVCLLNNFYPREAKVQWKVDNALQSGNSQESVTEQDSKDSTYSLSSTLTLSKADYEKHKVYACEVTHQGLSSPVTKSFNRGEC | 0.0875 nM | 118 | 118 | 124 | 128 | 0.0589 nM | 0.801 nM |  |  | 
A17m0902-1708-151H7-01-C (trispecific antibody, human IgG4 S228P, kappa, Type C; first residue of the 151H7 part changed from H to E; also called 151H7 H1E trispecific) heavy: not shown light: DIQMTQSPSSLSASVGDRVTITCRASENIYSYLAWYQQKPGKSPKLLIYNARTLAEGVPSRFSGSGSGTDFTLTISSLQPEDFATYYCQYHSGSPLPFGGGTKVEIKRTVAAPSVFIFPPSDEQLKSGTASVVCLLNNFYPREAKVQWKVDNALQSGNSQESVTEQDSKDSTYSLSSTLTLSKADYEKHKVYACEVTHQGLSSPVTKSFNRGEC |  |  |  |  |  |  |  | 0.105 nM | 1550 | 
A17h1-1708-30H2-C (trispecific antibody, human IgG4 S228P, kappa, Type C) heavy: not shown light: DIQMTQSPSSLSASVGDRVTITCRASENIYSYLAWYQQKPGKSPKLLIYNARTLAEGVPSRFSGSGSGTDFTLTISSLQPEDFATYYCQYHSGSPLPFGGGTKVEIKRTVAAPSVFIFPPSDEQLKSGTASVVCLLNNFYPREAKVQWKVDNALQSGNSQESVTEQDSKDSTYSLSSTLTLSKADYEKHKVYACEVTHQGLSSPVTKSFNRGEC | 0.0951 nM | 133 | 131 | 123 | 149 | 0.0822 nM | 0.264 nM |  |  | 
A17h1-1708-30H2-B (trispecific antibody, human IgG4 S228P, kappa) heavy: not shown light: EVQLQESGGGLVQPGGSLRLSCTASGLTFSDYSMSWYRQAPGKGRELVAIISGSGVIAHYVDSVKGRFTISRDNSKNTVYLQMRSLTPEDRAVYYCRAVSDWDDYWGQGTQVTVSSGGGGSGGGGSDIQMTQSPSSLSASVGDRVTITCRASENIYSYLAWYQQKPGKSPKLLIYNARTLAEGVPSRFSGSGSGTDFTLTISSLQPEDFATYYCQYHSGSPLPFGGGTKVEIKRTVAAPSVFIFPPSDEQLKSGTASVVCLLNNFYPREAKVQWKVDNALQSGNSQESVTEQDSKDSTYSLSSTLTLSKADYEKHKVYACEVTHQGLSSPVTKSFNRGEC | 0.107 nM | 108 | 137 | 125 | 134 | 0.0583 nM | 0.344 nM |  |  | 

More lines, main results first:

EC50 [2] | DC:T MLR result, 0.1 nM antibody (unit not given) [3] | DC:T MLR result, 1 nM antibody (unit not given) [3] | DC:T MLR result, 10 nM antibody (unit not given) [3] | DC:T MLR result, 100 nM antibody (unit not given) [3] | EC50 [4] | IC50, PD-1/PD-L1 NFAT reporter gene system [5] | EC50 [6] | EMAX [6] | Binder | other results
 |  |  |  |  | 0.125 nM |  | 0.112 nM | 1360 | 1708-151H7 (bispecific antibody, human IgG4 S228P, kappa, Humanized anti-PVRIG/TIGIT) heavy: not shown light: DIQMTQSPSSLSASVGDRVTITCRASENIYSYLAWYQQKPGKSPKLLIYNARTLAEGVPSRFSGSGSGTDFTLTISSLQPEDFATYYCQYHSGSPLPFGGGTKVEIKRTVAAPSVFIFPPSDEQLKSGTASVVCLLNNFYPREAKVQWKVDNALQSGNSQESVTEQDSKDSTYSLSSTLTLSKADYEKHKVYACEVTHQGLSSPVTKSFNRGEC | 
0.116 nM |  |  |  |  | 0.0846 nM |  |  |  | 1708-30H2 (bispecific antibody, human IgG4 S228P, kappa, Humanized anti-PVRIG/TIGIT) heavy: not shown light: DIQMTQSPSSLSASVGDRVTITCRASENIYSYLAWYQQKPGKSPKLLIYNARTLAEGVPSRFSGSGSGTDFTLTISSLQPEDFATYYCQYHSGSPLPFGGGTKVEIKRTVAAPSVFIFPPSDEQLKSGTASVVCLLNNFYPREAKVQWKVDNALQSGNSQESVTEQDSKDSTYSLSSTLTLSKADYEKHKVYACEVTHQGLSSPVTKSFNRGEC | 
 |  |  |  |  |  |  | 0.0964 nM | 1520 | A17m0902-1708-151H7-02-C (trispecific antibody, human IgG4 S228P, kappa, Type C; first residue of the 151H7 part changed from H to Q; also called 151H7 H1Q trispecific) heavy: not shown light: DIQMTQSPSSLSASVGDRVTITCRASENIYSYLAWYQQKPGKSPKLLIYNARTLAEGVPSRFSGSGSGTDFTLTISSLQPEDFATYYCQYHSGSPLPFGGGTKVEIKRTVAAPSVFIFPPSDEQLKSGTASVVCLLNNFYPREAKVQWKVDNALQSGNSQESVTEQDSKDSTYSLSSTLTLSKADYEKHKVYACEVTHQGLSSPVTKSFNRGEC | 
 |  |  |  |  |  |  | 0.0944 nM | 1520 | A17m0902-1708-151H7-C (trispecific antibody, human IgG4 S228P, kappa, Type C; also called A17m0902-151H7-C) heavy: not shown light: DIQMTQSPSSLSASVGDRVTITCRASENIYSYLAWYQQKPGKSPKLLIYNARTLAEGVPSRFSGSGSGTDFTLTISSLQPEDFATYYCQYHSGSPLPFGGGTKVEIKRTVAAPSVFIFPPSDEQLKSGTASVVCLLNNFYPREAKVQWKVDNALQSGNSQESVTEQDSKDSTYSLSSTLTLSKADYEKHKVYACEVTHQGLSSPVTKSFNRGEC | 
 | 108 | 97.8 | 136 | 148 | 0.154 nM |  |  |  | A17h1-1708-151H7-B (trispecific antibody, human IgG4 S228P, kappa) heavy: not shown light: EVQLQESGGGLVQPGGSLRLSCTASGLTFSDYSMSWYRQAPGKGRELVAIISGSGVIAHYVDSVKGRFTISRDNSKNTVYLQMRSLTPEDRAVYYCRAVSDWDDYWGQGTQVTVSSGGGGSGGGGSDIQMTQSPSSLSASVGDRVTITCRASENIYSYLAWYQQKPGKSPKLLIYNARTLAEGVPSRFSGSGSGTDFTLTISSLQPEDFATYYCQYHSGSPLPFGGGTKVEIKRTVAAPSVFIFPPSDEQLKSGTASVVCLLNNFYPREAKVQWKVDNALQSGNSQESVTEQDSKDSTYSLSSTLTLSKADYEKHKVYACEVTHQGLSSPVTKSFNRGEC | IC50 (read off the curve) [7]: ~0.4 nM
